Data on four molecules can be found in US20240011046A1 (UNIVERSITY OF PITTSBURGH OF THE COMMONWEALTH SYSTEM OF …, published 2024).

Where a chain is given by its changes, count along the chain named.

The target in assay [1] is TGF-β receptor II (TβRII) on the HEK-293 TGF-β CAGA-Luc reporter cells (UniProt P37173 23-567, limits assumed). As to the kind of experiment: cell-based or functional assay.
Assay [2] has as its target T1, TGF-β type II receptor (TβRII) (UniProt P37173 38-159).
T1 construct: Soluble protein: injected in ITC, and 2 µg run on the native gel; also called TGF-β receptor II; transforming growth factor-β type 2 receptor
As to the kind of experiment: ITC: TβRII injected into the monomer, three replicate titrations globally fit to a 1:1 binding model (reference control). How it is done: (§1) In order to evaluate the ability of the mmTGF-β2-7M variants described herein (mmTGF-β2-7M2R (SEQ ID NO: 9), mmTGF-β2-2M-De18-17 (SEQ ID NO: 10), and mmTGF-β2-7M-PRDC (SEQ ID NO: 11)) to bind TβRII, isothermal titration calorimetry (ITC) and native gels were used. The ITC binding experiments were performed by injecting increasing amounts of TβRII into mmTGF-β2-7M2R (SEQ ID NO: 9) or mmTGF-β2-2M-De18-17 (SEQ ID NO: 10), with mmTGF-β2-7M (SEQ ID NO: 7) used a reference control. These titrations yielded readily detectable isotherms with a large negative enthalpy and a near 1:1 binding stoichiometry (FIG. 8).
For orientation: ITC needs no label: the signal is the heat of the interaction.

In assay [3] the target is T1, TGF-β type II receptor (TβRII). As to the kind of experiment: ITC: TβRII injected into the monomer, three replicate titrations globally fit to a 1:1 binding model. How it is done:
as §1

Chain of TGF-β receptor II (TβRII) on the HEK-293 TGF-β CAGA-Luc reporter cells (P37173 23-567 limits assumed): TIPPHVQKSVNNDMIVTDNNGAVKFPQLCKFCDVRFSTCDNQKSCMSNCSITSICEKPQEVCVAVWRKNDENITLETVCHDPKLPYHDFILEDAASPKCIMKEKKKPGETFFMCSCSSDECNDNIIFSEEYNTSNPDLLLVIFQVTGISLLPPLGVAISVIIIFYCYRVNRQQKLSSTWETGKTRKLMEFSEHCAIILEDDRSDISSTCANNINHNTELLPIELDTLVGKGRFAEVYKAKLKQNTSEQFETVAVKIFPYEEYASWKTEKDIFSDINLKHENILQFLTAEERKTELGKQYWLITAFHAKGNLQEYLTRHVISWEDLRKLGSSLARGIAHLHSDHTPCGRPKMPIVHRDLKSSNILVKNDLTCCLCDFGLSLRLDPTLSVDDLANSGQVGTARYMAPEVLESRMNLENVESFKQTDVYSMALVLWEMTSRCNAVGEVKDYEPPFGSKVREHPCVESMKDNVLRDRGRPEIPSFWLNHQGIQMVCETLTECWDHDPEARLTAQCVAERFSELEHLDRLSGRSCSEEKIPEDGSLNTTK
T1 sequence (P37173 38-159 limits assumed): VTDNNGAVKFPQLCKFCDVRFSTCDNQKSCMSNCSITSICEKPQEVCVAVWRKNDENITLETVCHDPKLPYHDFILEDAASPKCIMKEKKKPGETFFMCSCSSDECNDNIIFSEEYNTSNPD

B1: mmTGF-β2-7M-PRDC (designed binder)
chain: KEVLASSQEALVVTERKYLKSDWCKLRPLYIDFRKDLGWKWIHEPKGYNANFCYGQCNSFYIPRHVKKEEDSFQSSAFCVSQDLEPLTIVYYVGRKPKVEQLSNMIVKSCRCMSV
B1: in assay [1], the “HEK-293 CAGA-Luc TGF-β reporter assay, IC50 relative to mmTGF-β2-7M” value was about 5 fold and the “HEK-293 CAGA-Luc TGF-β reporter assay, inhibition of signaling stimulated by 10 pM TGF-β3, IC50” value was 282 nM.

B2: mmTGF-β2-7M (designed binder)
chain: ALDAAYCFRNVQDNCCLRPLYIDFRKDLGWKWIHEPKGYNANFCAGACPYRASKSPSCVSQDLEPLTIVYYVGRKPKVEQLSNMIVKSCKCS
notes: also called dnTGFβ2^mm; mini-monomer
As for B2, in assay [1], the “HEK-293 CAGA-Luc TGF-β reporter assay, inhibition of signaling stimulated by 10 pM TGF-β3, IC50” value was 58.2 nM. This molecule came in with an equilibrium dissociation constant (Kd) in assay [2] of 60.5 nM.

B3: mmTGF-β2-2M-Del8-17 (designed binder)
chain: B2 chain with C7V, C16A, K26R, V69L, V72I, K75T, V78I
notes: The 8-17 disulfide is eliminated; also called mmTGF-β2-2M-De18-17; mmTGF-β2-2M-De18_17
Regarding B3, in assay [1], the “HEK-293 CAGA-Luc TGF-β reporter assay, inhibition of signaling stimulated by 10 pM TGF-β3, IC50” value stood at 111 nM. In assay [3], the Kd was determined as 80.1 nM.

B4: mmTGF-β2-7M2R (designed binder)
chain: B2 chain with S57R, V59R
notes: Made to reduce aggregation
As to B4, the “HEK-293 CAGA-Luc TGF-β reporter assay, inhibition of signaling stimulated by 10 pM TGF-β3, IC50” value in assay [1] came to 53.3 nM. The same molecule displayed a dissociation constant (Kd) in assay [3] of 75.1 nM.

The term Kd denotes the constant that tells how readily two partners part at equilibrium. A high value points to weaker binding.
